Biological target: T1, fluorescent labelled Bid BH3 peptide (fluorescent label (Flu- or FAM-), position not stated)
T1 construct: BH3 peptide derived from the pro-apoptotic protein Bid; The methods name two probes (Flu-Bid with Mcl-1); the two probes may differ in label and limits; also called Flu-Bid; FAM-Bid
Assay: fluorescence polarisation; direct binding of the fluorescent Bid probe to recombinant protein; Ex 485 nm, Em 530 nm, room temperature; buffer of the Kd determination not told apart from the two competitive assay buffers
Conditions: both partners purified

B1: recombinant Mcl-1 protein (wild type) (natural protein)
chain: EDELYRQSLEIISRYLREQATGAKDTKPMGRSGATSRKALETLRRVGDGVQRNHETAFQGMLRKLDIKNEDDVKSLSRVMIHVFSDGVTNWGRIVTLISFGAFVAKHLKTINQESCIEPLAESITDVLVRTKRDWLVKQRGWDGFVEFFHVEDLEGG
Kd: 3 ± 0.1 nM

B2: recombinant Bcl-xL protein (natural protein)
chain: MSQSNRELVVDFLSYKLSQKGYSWSQFSDVEENRTEAPEGTESEVKQALREAGDEFELRYRRAFSDLTSQLHITPGTAYQSFEQVVNELFRDGVNWGRIVAFFSFGGALCVESVDKEMQVLVSRIAAWMATYLNDHLEPWIQENGGWDTFVELYGNNAAAESRKGQERFN
Kd: 20 ± 2.3 nM

From article PMC6033896 (Scientific Reports, 2018)
